# Results taken from the supplement of paper PMC10266784.
# B1: library; numbered along this chain (parent)
# chain: MAAAAAAAAEQQSSNGPVKKSMREKAVERRSVNKEHNSNFKAGYIPIDEDRLHKTGLRGRKGNLAICVIILLFILAVINLIITLVIWAVIRIGPNGCDSMEFHESGLLRFKQVSDMGVIHPLYKSTVGGRRNENLVITGNNQPIVFQQGTTKLSVENNKTSITSDIGMQFFDPRTQNILFSTDYETHEFHLPSGVKSLNVQKASTERITSNATSDLNIKVDGRAIVRGNEGVFIMGKTIEFHMGGNMELKAENSIILNGSVMVSTTRLPSSSSGDQLGSGDWVRYKLCMCADGTLFKVQVTSQNMGCQISDNPCGNTH
# Variants of: B1
# Test: SGCB cell-surface expression functional score (HA stain, bin4 vs bin1, normalised to synonymous) (log10 ratio); higher = more cell-surface SGCB (functional)
# Outline: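 Human beta-sarcoglycan, tagged with HA and fused to YFP, was built into codon-saturation libraries and delivered by lentivirus at MOI <0.1 into HEK293 cells that stably express alpha-, gamma- and delta-sarcoglycan. After 72 hours, YFP-positive cells were sorted and grown for 5–7 days, then stained on ice with Alexa Fluor 647 anti-HA, fixed, sorted into four 5% intensity bins and amplicon-sequenced. Each variant's functional score is the log ratio of its frequency in the highest bin to that in the lowest bin, taken as the median across codons and transductions. Transductions were done in duplicate, and synonymous variants were scaled per section to mean 0, SD 0.5.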
row,Variant,SGCB cell-surface expression functional score (log10)
1,MAAAAAAAAEQQSSNGPVKKSMREKAVERRSVNKEHNSNFKAGYIPIDEDRLHKTGLRGRKGNLAICVIILLFILAVINLIITLVIWAVIRIGPNGCDSMEFHESGLLRFKQVSDMGVIHPLYKSTVGGRRNENLVITGNNQPIVFQQGTTKLSVENNKTSITSDIGMQFFDPRTQNILFSTDYETHEFHLPSGVKSLNVQKASTERITSNATSDLNIKVDGRAIVRGNEGVFIMGKTIEFHMGGNMELKAENSIIWNGSVMVSTTRLPSSSSGDQLGSGDWVRYKLCMCADGTLFKVQVTSQNMGCQISDNPCGNTH [L257W],0.82
2,MAAAAAAAAEQQSSNGPVKKSMREKAVERRSVNKEHNSNFKAGYIPIDEDRLHKTGLRGRKGNLAICVIILLFILAVINLIITLVIWAVIRIGPNGCDSMEFHESGLLRFKQVSDMGVIHPLYKSTVGGRRNENLVITGNNQPIVFQQGTTKLSVENNKTSITSDIGMQFFDPRTQNILFSTDYETHEFHLPSGVKSLNVQKASTERITSNATSDLNIKVDGRAIVRGNEGVFIMGKTIEFHMGGNMELKAENSIIYNGSVMVSTTRLPSSSSGDQLGSGDWVRYKLCMCADGTLFKVQVTSQNMGCQISDNPCGNTH [L257Y],0.3
3,MAAAAAAAAEQQSSNGPVKKSMREKAVERRSVNKEHNSNFKAGYIPIDEDRLHKTGLRGRKGNLAICVIILLFILAVINLIITLVIWAVIRIGPNGCDSMEFHESGLLRFKQVSDMGVIHPLYKSTVGGRRNENLVITGNNQPIVFQQGTTKLSVENNKTSITSDIGMQFFDPRTQNILFSTDYETHEFHLPSGVKSLNVQKASTERITSNATSDLNIKVDGRAIVRGNEGVFIMGKTIEFHMGGNMELKAENSIILKGSVMVSTTRLPSSSSGDQLGSGDWVRYKLCMCADGTLFKVQVTSQNMGCQISDNPCGNTH [N258K],0.55
4,MAAAAAAAAEQQSSNGPVKKSMREKAVERRSVNKEHNSNFKAGYIPIDEDRLHKTGLRGRKGNLAICVIILLFILAVINLIITLVIWAVIRIGPNGCDSMEFHESGLLRFKQVSDMGVIHPLYKSTVGGRRNENLVITGNNQPIVFQQGTTKLSVENNKTSITSDIGMQFFDPRTQNILFSTDYETHEFHLPSGVKSLNVQKASTERITSNATSDLNIKVDGRAIVRGNEGVFIMGKTIEFHMGGNMELKAENSIILQGSVMVSTTRLPSSSSGDQLGSGDWVRYKLCMCADGTLFKVQVTSQNMGCQISDNPCGNTH [N258Q],0.63
5,MAAAAAAAAEQQSSNGPVKKSMREKAVERRSVNKEHNSNFKAGYIPIDEDRLHKTGLRGRKGNLAICVIILLFILAVINLIITLVIWAVIRIGPNGCDSMEFHESGLLRFKQVSDMGVIHPLYKSTVGGRRNENLVITGNNQPIVFQQGTTKLSVENNKTSITSDIGMQFFDPRTQNILFSTDYETHEFHLPSGVKSLNVQKASTERITSNATSDLNIKVDGRAIVRGNEGVFIMGKTIEFHMGGNMELKAENSIILGGSVMVSTTRLPSSSSGDQLGSGDWVRYKLCMCADGTLFKVQVTSQNMGCQISDNPCGNTH [N258G],0.43
6,MAAAAAAAAEQQSSNGPVKKSMREKAVERRSVNKEHNSNFKAGYIPIDEDRLHKTGLRGRKGNLAICVIILLFILAVINLIITLVIWAVIRIGPNGCDSMEFHESGLLRFKQVSDMGVIHPLYKSTVGGRRNENLVITGNNQPIVFQQGTTKLSVENNKTSITSDIGMQFFDPRTQNILFSTDYETHEFHLPSGVKSLNVQKASTERITSNATSDLNIKVDGRAIVRGNEGVFIMGKTIEFHMGGNMELKAENSIILEGSVMVSTTRLPSSSSGDQLGSGDWVRYKLCMCADGTLFKVQVTSQNMGCQISDNPCGNTH [N258E],0
7,MAAAAAAAAEQQSSNGPVKKSMREKAVERRSVNKEHNSNFKAGYIPIDEDRLHKTGLRGRKGNLAICVIILLFILAVINLIITLVIWAVIRIGPNGCDSMEFHESGLLRFKQVSDMGVIHPLYKSTVGGRRNENLVITGNNQPIVFQQGTTKLSVENNKTSITSDIGMQFFDPRTQNILFSTDYETHEFHLPSGVKSLNVQKASTERITSNATSDLNIKVDGRAIVRGNEGVFIMGKTIEFHMGGNMELKAENSIILFGSVMVSTTRLPSSSSGDQLGSGDWVRYKLCMCADGTLFKVQVTSQNMGCQISDNPCGNTH [N258F],-0.09
8,MAAAAAAAAEQQSSNGPVKKSMREKAVERRSVNKEHNSNFKAGYIPIDEDRLHKTGLRGRKGNLAICVIILLFILAVINLIITLVIWAVIRIGPNGCDSMEFHESGLLRFKQVSDMGVIHPLYKSTVGGRRNENLVITGNNQPIVFQQGTTKLSVENNKTSITSDIGMQFFDPRTQNILFSTDYETHEFHLPSGVKSLNVQKASTERITSNATSDLNIKVDGRAIVRGNEGVFIMGKTIEFHMGGNMELKAENSIILCGSVMVSTTRLPSSSSGDQLGSGDWVRYKLCMCADGTLFKVQVTSQNMGCQISDNPCGNTH [N258C],0.74
9,MAAAAAAAAEQQSSNGPVKKSMREKAVERRSVNKEHNSNFKAGYIPIDEDRLHKTGLRGRKGNLAICVIILLFILAVINLIITLVIWAVIRIGPNGCDSMEFHESGLLRFKQVSDMGVIHPLYKSTVGGRRNENLVITGNNQPIVFQQGTTKLSVENNKTSITSDIGMQFFDPRTQNILFSTDYETHEFHLPSGVKSLNVQKASTERITSNATSDLNIKVDGRAIVRGNEGVFIMGKTIEFHMGGNMELKAENSIILSGSVMVSTTRLPSSSSGDQLGSGDWVRYKLCMCADGTLFKVQVTSQNMGCQISDNPCGNTH [N258S],0.66
10,MAAAAAAAAEQQSSNGPVKKSMREKAVERRSVNKEHNSNFKAGYIPIDEDRLHKTGLRGRKGNLAICVIILLFILAVINLIITLVIWAVIRIGPNGCDSMEFHESGLLRFKQVSDMGVIHPLYKSTVGGRRNENLVITGNNQPIVFQQGTTKLSVENNKTSITSDIGMQFFDPRTQNILFSTDYETHEFHLPSGVKSLNVQKASTERITSNATSDLNIKVDGRAIVRGNEGVFIMGKTIEFHMGGNMELKAENSIILPGSVMVSTTRLPSSSSGDQLGSGDWVRYKLCMCADGTLFKVQVTSQNMGCQISDNPCGNTH [N258P],-1.25
11,MAAAAAAAAEQQSSNGPVKKSMREKAVERRSVNKEHNSNFKAGYIPIDEDRLHKTGLRGRKGNLAICVIILLFILAVINLIITLVIWAVIRIGPNGCDSMEFHESGLLRFKQVSDMGVIHPLYKSTVGGRRNENLVITGNNQPIVFQQGTTKLSVENNKTSITSDIGMQFFDPRTQNILFSTDYETHEFHLPSGVKSLNVQKASTERITSNATSDLNIKVDGRAIVRGNEGVFIMGKTIEFHMGGNMELKAENSIILRGSVMVSTTRLPSSSSGDQLGSGDWVRYKLCMCADGTLFKVQVTSQNMGCQISDNPCGNTH [N258R],0.61
12,MAAAAAAAAEQQSSNGPVKKSMREKAVERRSVNKEHNSNFKAGYIPIDEDRLHKTGLRGRKGNLAICVIILLFILAVINLIITLVIWAVIRIGPNGCDSMEFHESGLLRFKQVSDMGVIHPLYKSTVGGRRNENLVITGNNQPIVFQQGTTKLSVENNKTSITSDIGMQFFDPRTQNILFSTDYETHEFHLPSGVKSLNVQKASTERITSNATSDLNIKVDGRAIVRGNEGVFIMGKTIEFHMGGNMELKAENSIILLGSVMVSTTRLPSSSSGDQLGSGDWVRYKLCMCADGTLFKVQVTSQNMGCQISDNPCGNTH [N258L],0.61
13,MAAAAAAAAEQQSSNGPVKKSMREKAVERRSVNKEHNSNFKAGYIPIDEDRLHKTGLRGRKGNLAICVIILLFILAVINLIITLVIWAVIRIGPNGCDSMEFHESGLLRFKQVSDMGVIHPLYKSTVGGRRNENLVITGNNQPIVFQQGTTKLSVENNKTSITSDIGMQFFDPRTQNILFSTDYETHEFHLPSGVKSLNVQKASTERITSNATSDLNIKVDGRAIVRGNEGVFIMGKTIEFHMGGNMELKAENSIILDGSVMVSTTRLPSSSSGDQLGSGDWVRYKLCMCADGTLFKVQVTSQNMGCQISDNPCGNTH [N258D],0.39
14,MAAAAAAAAEQQSSNGPVKKSMREKAVERRSVNKEHNSNFKAGYIPIDEDRLHKTGLRGRKGNLAICVIILLFILAVINLIITLVIWAVIRIGPNGCDSMEFHESGLLRFKQVSDMGVIHPLYKSTVGGRRNENLVITGNNQPIVFQQGTTKLSVENNKTSITSDIGMQFFDPRTQNILFSTDYETHEFHLPSGVKSLNVQKASTERITSNATSDLNIKVDGRAIVRGNEGVFIMGKTIEFHMGGNMELKAENSIILMGSVMVSTTRLPSSSSGDQLGSGDWVRYKLCMCADGTLFKVQVTSQNMGCQISDNPCGNTH [N258M],0.62
15,MAAAAAAAAEQQSSNGPVKKSMREKAVERRSVNKEHNSNFKAGYIPIDEDRLHKTGLRGRKGNLAICVIILLFILAVINLIITLVIWAVIRIGPNGCDSMEFHESGLLRFKQVSDMGVIHPLYKSTVGGRRNENLVITGNNQPIVFQQGTTKLSVENNKTSITSDIGMQFFDPRTQNILFSTDYETHEFHLPSGVKSLNVQKASTERITSNATSDLNIKVDGRAIVRGNEGVFIMGKTIEFHMGGNMELKAENSIILVGSVMVSTTRLPSSSSGDQLGSGDWVRYKLCMCADGTLFKVQVTSQNMGCQISDNPCGNTH [N258V],0.3
16,MAAAAAAAAEQQSSNGPVKKSMREKAVERRSVNKEHNSNFKAGYIPIDEDRLHKTGLRGRKGNLAICVIILLFILAVINLIITLVIWAVIRIGPNGCDSMEFHESGLLRFKQVSDMGVIHPLYKSTVGGRRNENLVITGNNQPIVFQQGTTKLSVENNKTSITSDIGMQFFDPRTQNILFSTDYETHEFHLPSGVKSLNVQKASTERITSNATSDLNIKVDGRAIVRGNEGVFIMGKTIEFHMGGNMELKAENSIILAGSVMVSTTRLPSSSSGDQLGSGDWVRYKLCMCADGTLFKVQVTSQNMGCQISDNPCGNTH [N258A],0.1
17,MAAAAAAAAEQQSSNGPVKKSMREKAVERRSVNKEHNSNFKAGYIPIDEDRLHKTGLRGRKGNLAICVIILLFILAVINLIITLVIWAVIRIGPNGCDSMEFHESGLLRFKQVSDMGVIHPLYKSTVGGRRNENLVITGNNQPIVFQQGTTKLSVENNKTSITSDIGMQFFDPRTQNILFSTDYETHEFHLPSGVKSLNVQKASTERITSNATSDLNIKVDGRAIVRGNEGVFIMGKTIEFHMGGNMELKAENSIILIGSVMVSTTRLPSSSSGDQLGSGDWVRYKLCMCADGTLFKVQVTSQNMGCQISDNPCGNTH [N258I],-0.1
18,MAAAAAAAAEQQSSNGPVKKSMREKAVERRSVNKEHNSNFKAGYIPIDEDRLHKTGLRGRKGNLAICVIILLFILAVINLIITLVIWAVIRIGPNGCDSMEFHESGLLRFKQVSDMGVIHPLYKSTVGGRRNENLVITGNNQPIVFQQGTTKLSVENNKTSITSDIGMQFFDPRTQNILFSTDYETHEFHLPSGVKSLNVQKASTERITSNATSDLNIKVDGRAIVRGNEGVFIMGKTIEFHMGGNMELKAENSIILTGSVMVSTTRLPSSSSGDQLGSGDWVRYKLCMCADGTLFKVQVTSQNMGCQISDNPCGNTH [N258T],-0.05
19,MAAAAAAAAEQQSSNGPVKKSMREKAVERRSVNKEHNSNFKAGYIPIDEDRLHKTGLRGRKGNLAICVIILLFILAVINLIITLVIWAVIRIGPNGCDSMEFHESGLLRFKQVSDMGVIHPLYKSTVGGRRNENLVITGNNQPIVFQQGTTKLSVENNKTSITSDIGMQFFDPRTQNILFSTDYETHEFHLPSGVKSLNVQKASTERITSNATSDLNIKVDGRAIVRGNEGVFIMGKTIEFHMGGNMELKAENSIILHGSVMVSTTRLPSSSSGDQLGSGDWVRYKLCMCADGTLFKVQVTSQNMGCQISDNPCGNTH [N258H],0.33
